According to paper PMC11283288 (Nature, 2024):

Molecular target: the molecule itself
Test: cryo-EM structure

B1: Full-length GSDMD(D275A), C-terminal Flag, palmitoylated (natural protein, human, UniProt P57764 1-484, looked up)
chain: MGSAFERVVRRVVQELDHGGEFIPVTSLQSSTGFQPYCLVVRKPSSSWFWKPRYKCVNLSIKDILEPDAAEPDVQRGRSFHFYDAMDGQIQGSVELAAPGQAKIAGGAAVSDSSSTSMNVYSLSVDPNTWQTLLHERHLRQPEHKVLQQLRSRGDNVYVVTEVLQTQKEVEVTRTHKREGSGRFSLPGATCLQGEGQGHLSQKKTVTIPSGSTLAFRVAQLVIDSDLDVLLFPDKKQRTFQPPATGHKRSTSEGAWPQLPSGLSMMRCLHNFLTAGVPAEGAFTEDFQGLRAEVETISKELELLDRELCQLLLEGLEGVLRDQLALRALEEALEQGQSLGPVEPLDGPAGAVLECLVLSSGMLVPELAIPVVYLLGALTMLSETQHKLLAEALESQTLLGPLELVGSLLEQSAPWQERSTMSLPPGLLGNSWGEGAPAWVLLDECGLELGEDTPHVCWEPQAQGRMCALYASLALLSGLSQEPH
modifications: S-palmitoylation at Cys191
  stoichiometry N: 33
